# Results as given in US20210261677A1 (ORICELL THERAPEUTICS, published 2021).
# Residue numbers refer to the chain shown, from its start. Like-named read-outs stand apart in the source and are kept apart here.
# T1: recombinant dog PD-L1-Fc (70110-DO2H, Sino Biological Inc.) (dog, UniProt E2RKZ5 19-236, Biotinylated on lysines/amines (EZ-Link Sulfo-NHS-LC-Biotin); positions not defined)
# T1 construct: Bought; also called Dog PD-L1-Fc-Biotin; canine PD-L1; not shown: Fc part and any linker of the bought fusion (Sino Biological 70110-DO2H)
# T1 sequence: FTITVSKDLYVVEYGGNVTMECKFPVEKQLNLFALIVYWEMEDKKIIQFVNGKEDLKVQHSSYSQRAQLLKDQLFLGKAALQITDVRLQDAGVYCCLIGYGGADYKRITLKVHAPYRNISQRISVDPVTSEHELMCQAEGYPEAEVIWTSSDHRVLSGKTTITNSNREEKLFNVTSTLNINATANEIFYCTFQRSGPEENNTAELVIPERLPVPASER
# B1: anti-PD-L1 fully human antibody YN-002 (antibody, human IgG1, lambda, V domains shown)
# VH: QVQLVQSGAEVRKPGSSVKVSCKASGGTFSSYAISWVRQAPGQGLEWMGRIIPILGIANYAQKFQGRVTITADKSTSTAYMELSSLRSEDTAVYYCARTMDGYSYGNFDYWGQGTLVTVSS
# VL: QSALTQPASVSGSPGQSITISCTGTSSDVGGYNYVSWYQQHPGKAPKLLIYGNSNRPSGVPDRFSGSKSGTSASLAITGLQAEDEADYYCQSYDSSLSGSVFGGGTKLTVLG
# notes: Intact IgG1,lambda antibody of phage antibody 1B10, expressed in 293F cells
# B2: PD-L1 antibody YN-036 (antibody, human IgG1, lambda, V domains shown)
# VH: B1 VH with R12K, G26R, T28P, S31T, D101G, G102E, F108Y
# VL: QSALTQPASVSGSPGQSITISCTGTVSEVGGYNEVSWYQQHPGKAPKLMIYGNSNRPSGVSNRFSGSKSGNTASLTISGLQAEDEADYYCQSYDSSLSGTVFGGGTKLTVLG
# notes: full-length IgG1,lambda
# B3: anti-PD-L1 fully human antibody YN-003 (antibody, human IgG1, lambda, V domains shown)
# VH: B1 VH with R12K
# VL: B2 VL with V26S, E28D, E34Y, T100S
# notes: Germline version of YN-002; IgG1,lambda
# B4: PD-L1 antibody YN-035 (antibody, human IgG1, lambda, V domains shown)
# VH: B1 VH with R12K, G26R, T28P, S31T, D101E, S104G, Y105F
# VL: B2 VL
# notes: full-length IgG1,lambda
# Experiments:
# [1] = target: T2, human PD-L1 on cells (CHO cells that stably expressed human PD-L1; MDA-MB-231 cells) (human, UniProt Q9NZQ7 19-290); assay: flow cytometry competition: biotin-labelled human PD-1-Fc at a subsaturated concentration on CHO cells stably expressing human PD-L1, antibody titrated, streptavidin R-PE detection
# T2 construct: whole, on cells; Stably expressed on CHO cells; also called CHO cells expressing human PD-L1
# T2 sequence (Q9NZQ7 19-290): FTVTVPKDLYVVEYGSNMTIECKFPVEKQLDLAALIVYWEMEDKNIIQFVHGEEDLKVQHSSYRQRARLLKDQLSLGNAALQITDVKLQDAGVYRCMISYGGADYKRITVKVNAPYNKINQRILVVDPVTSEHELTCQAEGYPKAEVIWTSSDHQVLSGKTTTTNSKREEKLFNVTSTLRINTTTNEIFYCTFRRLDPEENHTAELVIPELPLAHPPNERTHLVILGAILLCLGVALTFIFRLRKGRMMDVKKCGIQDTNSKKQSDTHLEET
# Description: (§1) After cell washing, Streptavidin R-PE Conjugate (life technology, SA10041) was added and incubated (4° C., 30 min). After cell washing, the fluorescence intensity was detected by a flow cytometer (Intellicyt iQue Screener).
# [2] = target: T3, recombinant Macaca fascicularis PD-L1-Fc (90251-CO2H, Sino Biological Inc.) (Macaca fascicularis, UniProt G7PSE7 19-239); assay: BLI (Octet RED384), biotinylated antigen on SA sensor, antibody in solution
# T3 construct: Bought; also called Macaca Fascicularis PD-L1-Fc-Biotin; not shown: Fc part
# T3 sequence (G7PSE7 entry or part of it): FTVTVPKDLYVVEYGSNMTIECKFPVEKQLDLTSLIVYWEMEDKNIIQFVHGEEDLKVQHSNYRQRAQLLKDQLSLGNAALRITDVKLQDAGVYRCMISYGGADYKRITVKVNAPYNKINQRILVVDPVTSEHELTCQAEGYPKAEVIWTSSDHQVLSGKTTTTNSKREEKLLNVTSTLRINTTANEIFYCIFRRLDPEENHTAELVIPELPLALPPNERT
# Description: (§2) The antigen-antibody binding kinetics were analyzed by a biofilm interference (BLI) technology, using a molecular interaction analyzer (Octet RED384, purchased from Pall ForteBio Analytics Co., Ltd.) and using a PBS buffer containing 0.1% BSA and 0.02% Tween 20. A biotin-coupled antigen protein with a concentration of 50 nM was fixed with the SA sensor (Pall ForteBio Analytics Co., Ltd.), and bound at 1500 rpm for 10 minutes; then it was bound with the double-diluted antibody solution at 1500 rpm for 10 minutes; and finally dissociated at 1500 rpm for 10 minutes. The obtained results would be analyzed by Octet Data Analysis 9.0 software (Pall ForteBio Analytics Co., Ltd.) to give the KD, Kₒₙ (1/Ms) and Koff (1/s).
# [3] = target: T4, recombinant human PD-L1-Fc protein (Origincell Therapeutics Co., Ltd.) (human, UniProt Q9NZQ7 19-238, limits assumed); assay: as above
# T4 construct: Labeled with biotin (EZ-Link Sulfo-NHS-LC-Biotin) for the BLI assays; unlabeled in the phage ELISA; also called Human PD-L1-Fc-Biotin; not shown: Fc part
# T4 sequence (Q9NZQ7 19-238 limits assumed): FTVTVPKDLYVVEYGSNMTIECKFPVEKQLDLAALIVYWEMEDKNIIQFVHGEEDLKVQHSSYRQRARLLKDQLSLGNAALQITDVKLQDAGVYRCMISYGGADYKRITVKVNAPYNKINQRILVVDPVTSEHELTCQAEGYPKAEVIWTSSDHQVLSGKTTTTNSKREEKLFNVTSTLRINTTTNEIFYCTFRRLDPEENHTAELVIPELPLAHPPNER
# Description: as §2
# [4] = target: T5, recombinant mouse PD-L1-Fc protein (M5251, ACROBiosystems Inc.) (mouse, UniProt Q9EP73 19-238); assay: as above
# T5 construct: Bought; Labeled with biotin for the BLI assays; unlabeled in the phage ELISA; also called Mouse PD-L1-Fc-Biotin; not shown: Fc part
# T5 sequence (Q9EP73 19-238 limits assumed): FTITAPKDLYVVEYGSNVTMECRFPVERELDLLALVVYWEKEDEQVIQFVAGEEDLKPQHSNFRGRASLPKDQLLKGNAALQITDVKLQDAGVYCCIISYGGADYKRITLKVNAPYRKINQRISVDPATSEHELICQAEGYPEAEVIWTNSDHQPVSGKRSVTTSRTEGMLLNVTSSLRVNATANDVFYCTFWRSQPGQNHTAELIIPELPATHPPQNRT
# Description: as §2
# [5] = target: T1, recombinant dog PD-L1-Fc (70110-DO2H, …); assay: as above
# Description: as §2
# [6] = target: T6, mouse PD-L1 on CHO cells that stably expressed mouse PD-L1 (mouse, UniProt Q9EP73 19-290); assay: flow cytometry competition: biotin-labelled mouse PD-1-Fc at a subsaturated concentration on CHO cells stably expressing mouse PD-L1, antibody titrated, streptavidin R-PE detection
# T6 construct: whole, on cells; also called CHO cells expressing mouse PD-L1
# T6 sequence (Q9EP73 19-290): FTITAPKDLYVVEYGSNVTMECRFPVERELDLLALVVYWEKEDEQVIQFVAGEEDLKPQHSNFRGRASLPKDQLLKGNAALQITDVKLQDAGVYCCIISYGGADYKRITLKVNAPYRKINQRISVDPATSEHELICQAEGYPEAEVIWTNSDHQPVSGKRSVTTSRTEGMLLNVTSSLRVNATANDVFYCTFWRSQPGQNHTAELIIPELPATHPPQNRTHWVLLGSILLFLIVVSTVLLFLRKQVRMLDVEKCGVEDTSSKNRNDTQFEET
# Description: After cell washing, Streptavidin R-PE Conjugate (life technology, SA10041) was added and incubated (4° C., 30 min). After cell washing, the fluorescence intensity was detected by flow cytometer (Intellicyt iQue Screener).
# [7] = target: T2, human PD-L1 on cells (CHO cells that …); assay: flow cytometry on MDA-MB-231 cells (human PD-L1), anti-human IgG-Fc DyLight 650 detection
# Description: Human breast cell strain MDA-MB-231 (Shanghai Chinese Academy of Sciences Cell Library) highly expresses the human PD-L1 molecule. […] After cell washing, Goat F(ab′)₂ Anti-Human IgG-Fc (DyLight 650) (ab98593, abcam) was added and incubated at 4° C. for 30 min. After cell washing, the fluorescence intensity was detected by a flow cytometer (Intellicyt iQue Screener).
# [8] = target: T2, human PD-L1 on cells (CHO cells that …); assay: flow cytometry on CHO cells stably expressing human PD-L1, anti-human IgG-Fc DyLight 650 detection
# Description: The mixture was mixed well and incubated at 4° C. for 1 hr. After cell washing, Goat F(ab)₂ Anti-Human IgG-Fc (DyLight 650) (ab98593, Abcam) was added and incubated at 4° C. for 30 min. After cell washing, the fluorescence intensity was detected by a flow cytometer (Intellicyt iQue Screener).
# [9] = target: T6, mouse PD-L1 on CHO cells that stably …; assay: flow cytometry on CHO cells stably expressing mouse PD-L1, anti-human IgG-Fc DyLight 650 detection
# Description: The mixture was mixed well and incubated at 4° C. for 1 hr. After cell washing, Goat F(ab′)₂ Anti-Human IgG-Fc (DyLight 650) (ab98593) was added and incubated at 4° C. for 30 min. After cell washing, the fluorescence intensity was detected by a flow cytometer (Intellicyt iQue Screener).
# [10] = target: T2, human PD-L1 on cells (CHO cells that …); assay: flow cytometry competition: biotin-labelled human PD-1-Fc at a subsaturated concentration on CHO cells stably expressing human PD-L1, antibody titrated, streptavidin R-PE detection; remark: listed apart in the source
# Description: as §1
# [11] = target: T7, recombinant human PD-L1-His protein (Origincell Therapeutics Co., Ltd.) (human, UniProt Q9NZQ7 19-238, limits assumed); assay: BLI (Octet RED384), antibody on AHC sensor, PD-L1-His in solution
# T7 construct: not shown: His tag
# T7 sequence (Q9NZQ7 19-238 limits assumed): as the sequence (Q9NZQ7 19-238 limits assumed) above
# [12] = target: T6, mouse PD-L1 on CHO cells that stably …; assay: flow cytometry competition: biotin-labelled mouse PD-1-Fc at a subsaturated concentration on CHO cells stably expressing mouse PD-L1, antibody titrated, streptavidin R-PE detection; remark: listed apart in the source
# Description: as §1
# [13] = target: T2, human PD-L1 on cells (CHO cells that …); assay: flow cytometry on CHO cells stably expressing human PD-L1, anti-human IgG-Fc DyLight 650 detection; remark: listed apart in the source
# Description: After cell washing, Goat F(ab′)₂ Anti-Human IgG-Fc (DyLight 650) (ab98593, abcam) was added and incubated at 4° C. for 30 min. After cell washing, the fluorescence intensity was detected by a flow cytometer (Intellicyt iQue Screener).
# [14] = target: T6, mouse PD-L1 on CHO cells that stably …; assay: flow cytometry competition: biotin-labelled mouse PD-1-Fc at a subsaturated concentration on CHO cells stably expressing mouse PD-L1, antibody titrated, streptavidin R-PE detection; remark: listed apart in the source
# Description: as §1
Binder,IC50 (read off the curve) [1],Kd [2] [nM],koff [2] [s⁻¹],kon [2] [M⁻¹ s⁻¹],Kd [3] [nM],koff [3] [s⁻¹],kon [3] [M⁻¹ s⁻¹],Kd [4] [nM],koff [4] [s⁻¹],kon [4] [M⁻¹ s⁻¹],Kd [5] [nM],koff [5] [s⁻¹],kon [5] [M⁻¹ s⁻¹],IC50 (read off the curve) [6] [µg/mL],EC50 (read off the curve) [7] [nM],EC50 (read off the curve) [8] [nM],EC50 (read off the curve) [9] [nM],IC50 (read off the curve) [10] [nM],Kd [11] [nM],koff [11] [s⁻¹],also measured
B1,~1 µg/mL,1.07,0.0019,1.77e+06,0.888,0.000594,669000,1.72,0.00168,977000,0.743,0.000759,1.02e+06,~0.1,,,,,,,
B2,~3 nM,,,,,,,,,,,,,,~1,3 to 4,~4,~2,0.474,0.000175,kon [11]: 369000 M⁻¹ s⁻¹; IC50 (read off the curve) [12]: ~2 nM; EC50 (read off the curve) [13]: ~4 nM; IC50 (read off the curve) [14]: ~5 nM
B3,~0.2 µg/mL,0.654,0.00136,2.08e+06,0.408,0.000611,1.5e+06,0.996,0.000997,1.03e+06,0.594,0.000514,864000,~0.06,,,,,,,
B4,~3 nM,,,,,,,,,,,,,,~0.9,3 to 4,~6,~2,0.452,0.000193,kon [11]: 427000 M⁻¹ s⁻¹; IC50 (read off the curve) [12]: ~3 nM; EC50 (read off the curve) [13]: ~4 nM; IC50 (read off the curve) [14]: ~5 nM
